Measurements: patent US20210155689A1 (SHANGHAI PHARMAEXPLORER, published 2021)
Numbering of substitutions follows the chain as printed.

Legend:
[1] = molecular target: T1, LAG-3-hFc protein (human LAG-3 extracellular region with hFc tag) (human, UniProt P18627 23-450); assay: FACS, inhibition of LAG-3-hFc binding to MHC II on Raji cells, antibody 2.469 nM
T1 construct: also called hLAG-3-hFc; LAG-3 protein; not shown: human IgG Fc fragment (hFc) of the pCpC vector
T1 sequence: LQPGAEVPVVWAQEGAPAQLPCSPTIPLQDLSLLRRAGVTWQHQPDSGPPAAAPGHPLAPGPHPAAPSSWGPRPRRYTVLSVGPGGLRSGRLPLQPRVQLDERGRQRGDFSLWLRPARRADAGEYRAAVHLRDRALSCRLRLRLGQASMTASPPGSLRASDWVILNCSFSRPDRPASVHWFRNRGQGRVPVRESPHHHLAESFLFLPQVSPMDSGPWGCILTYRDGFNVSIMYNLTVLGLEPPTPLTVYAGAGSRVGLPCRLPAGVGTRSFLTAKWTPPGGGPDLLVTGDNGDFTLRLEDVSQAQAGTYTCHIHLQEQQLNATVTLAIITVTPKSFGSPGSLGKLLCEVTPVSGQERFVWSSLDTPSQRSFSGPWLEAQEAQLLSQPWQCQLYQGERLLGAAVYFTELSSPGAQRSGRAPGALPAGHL
Protocol: The FACS reaction plate incubating the Raji cells was centrifuged to discard the supernatant. The above mixture was added as 100 μl per well to Raji cells and incubated on ice for 1-2 hours. The plate was washed twice with blocking solution (PBS, 2% fetal bovine serum) by centrifugation, added with 100 microliters of fluorescent (Alexa 488)-labeled secondary antibodies per well, and incubated on ice for 1.0 hours. The plate was washed 2-3 times by centrifugation with blocking solution (PBS, 2% fetal bovine serum), added with 100 microliters of PBS per well to suspend cells, and detected using FACS (FACS Calibur, BD) and the results were analyzed. Wherein, the IgG control was murine IgG, and the data in the table is the inhibition rate (%).

[2] = molecular target: T2, human LAG-3 protein with hFc tag (hLAG-3-hFc protein) (human, UniProt P18627 23-450); assay: ELISA, hLAG-3-hFc coated; 0.0000 nM
T2 construct: also called immunogen 1; LAG-3 extracellular domain protein; not shown: human IgG Fc fragment (hFc) of the pCpC vector
T2 sequence: T1 sequence
Protocol: (§1) The plate was sealed with plastic film and incubated overnight at 4° C. The plate was washed 2 times with the plate washing solution (PBS+0.01% Tween20) on the next day, and added with the blocking solution (PBS+0.01% Tween20+1% BSA) and blocked at room temperature for 1-2 hours. The blocking solution was poured out, and the plate was added with 50-100 μl of the antibody sample to be tested to each well, incubated at 37° C. for 1-2 hours, and washed 2-3 times with a plate washing solution (PBS+0.01% Tween20). HRP (horseradish peroxidase) labeled secondary antibody was added, and the plate was incubated at 37° C. for 1-2 hours, and washed 2-3 times with a plate washing solution (PBS+0.01% Tween20). 100 μl of TMB substrate was added to each well. After incubated at room temperature for 15-30 minutes, the plate was added with 100 μl of stop solution (1.0N HCl) to each well.

[3] = molecular target: T3, hFc tagged monkey LAG-3 protein (cLAG-3-hFc protein) (monkey; human); assay: ELISA, cLAG-3-hFc coated; 0.0667 nM
T3 construct: Made in HEK293 cells; also called monkey LAG-3 extracellular domain protein; not shown: human IgG Fc fragment (hFc) of the pCpC vector
T3 chain: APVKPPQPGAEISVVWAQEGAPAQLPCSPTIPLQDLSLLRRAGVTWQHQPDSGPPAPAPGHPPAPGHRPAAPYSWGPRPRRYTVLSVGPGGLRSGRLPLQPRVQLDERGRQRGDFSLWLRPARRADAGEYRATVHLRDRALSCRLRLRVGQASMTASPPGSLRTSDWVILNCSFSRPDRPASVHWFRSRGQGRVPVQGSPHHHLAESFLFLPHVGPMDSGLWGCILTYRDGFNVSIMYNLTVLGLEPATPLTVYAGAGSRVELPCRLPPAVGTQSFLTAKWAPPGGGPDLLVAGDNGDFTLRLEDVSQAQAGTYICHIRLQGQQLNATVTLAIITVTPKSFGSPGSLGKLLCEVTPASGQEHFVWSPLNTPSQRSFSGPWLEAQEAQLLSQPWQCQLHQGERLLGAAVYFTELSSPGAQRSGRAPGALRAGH
Protocol: as §1

[4] = molecular target: T4, mouse LAG-3 protein with hFc tag (mLAG-3-hFc protein) (mouse; human, UniProt Q61790 24-442); assay: ELISA, mLAG-3-hFc coated; 0.6667 nM
T4 construct: Made in HEK293 cells; also called mouse LAG-3 extracellular domain protein; not shown: human IgG Fc fragment (hFc) of the pCpC vector
T4 sequence: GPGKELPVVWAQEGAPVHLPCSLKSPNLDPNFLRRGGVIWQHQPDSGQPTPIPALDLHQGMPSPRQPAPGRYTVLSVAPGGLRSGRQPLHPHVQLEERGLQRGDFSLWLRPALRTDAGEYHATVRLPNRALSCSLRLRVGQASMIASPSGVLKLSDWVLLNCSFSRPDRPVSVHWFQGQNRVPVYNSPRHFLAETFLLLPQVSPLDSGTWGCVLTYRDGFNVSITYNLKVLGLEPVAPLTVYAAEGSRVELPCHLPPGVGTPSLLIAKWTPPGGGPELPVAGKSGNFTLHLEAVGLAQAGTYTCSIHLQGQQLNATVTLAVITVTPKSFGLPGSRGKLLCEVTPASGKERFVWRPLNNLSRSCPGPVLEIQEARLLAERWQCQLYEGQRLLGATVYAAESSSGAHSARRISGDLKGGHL
Protocol: as §1

B1: 105F1E10 mouse-human chimeric antibody (antibody, V domains shown)
VH: EVQLQQSGPELVKPGASVKMSCRASGYTFTDFKMHWMKQSHGKSLEWIGYIAPNNGGTAYNQKFRGKATLTVNESSNTAYMELRSLTSEDSAVYYCVDWDDVDYWGQGTTLTVSS
VL: DIKMTQSPSSMYASLGERVTITCKASQDINSYLSWFQQKSGKSPKTLIYRANRLVDGVPSRFSGSGSGQDYSLTISSLEYEDMGIYYCLQYVEFPLTFGAGTKLELK
notes: also called mAb009-105F1E10
Inhibition rate (%) [1]: 8.2%

B2: 405B8H3 mouse-human chimeric antibody (antibody, V domains shown)
VH: QVQLQQSGAELVRPGASVTLSCKASGYTFTDYEMHWVKQTPVHGLEWIGATDPETGNSAYNQKFKGKAIMTADKSSSTAYMELRSLTSEDSAVYYCISTGWNDWGQGTSLTVSS
VL: B1 VL with S40P, N52D, V55L, E81G, V92D, L96Y, A100G, L106I
notes: also called mAb103-405B8H3
Inhibition rate (%) [1]: 55.8%

B3: 105F1E10 (LAG-3 mouse-human chimeric antibody) (antibody, V domains shown)
VH: B1 VH
VL: B1 VL
OD450 [2]: 0.11 OD450
OD450 [3]: 1 OD450
OD450 [4]: 0.09 OD450

B4: 405B8H3 (LAG-3 mouse-human chimeric antibody) (antibody, V domains shown)
VH: B2 VH
VL: B1 VL with S40P, N52D, V55L, E81G, V92D, L96Y, A100G, L106I
notes: also called mouse-human chimeric antibody 405B8H3
OD450 [2]: 0.12 OD450
OD450 [3]: 1.96 OD450
OD450 [4]: 0.11 OD450

B5: 409D4E10 mouse-human chimeric antibody (antibody, V domains shown)
VH: B2 VH with Y27N, G56D, S58T, M70L, A72T, S98T, T99S
VL: B1 VL with S40P, V55L, V92N, L96Y, A100G, L106I
notes: also called mAb112-409D4E10
Inhibition rate (%) [1]: 56.7%

B6: 409B11E12 (LAG-3 mouse-human chimeric antibody) (antibody, V domains shown)
VH: B2 VH with P41T, G56S, N57Y, M70L, S98A
VL: B1 VL with I2L, S40P, V55L, V92D, L96Y, A100G, L106I
OD450 [2]: 0.13 OD450
OD450 [3]: 1.91 OD450
OD450 [4]: 0.1 OD450

B7: 409D4E10 (LAG-3 mouse-human chimeric antibody) (antibody, V domains shown)
VH: B2 VH with Y27N, G56D, S58T, M70L, A72T, S98T, T99S
VL: B1 VL with S40P, V55L, V92N, L96Y, A100G, L106I
OD450 [2]: 0.14 OD450
OD450 [3]: 3.05 OD450
OD450 [4]: 0.11 OD450

B8: 409B11E12 mouse-human chimeric antibody (antibody, V domains shown)
VH: B2 VH with P41T, G56S, N57Y, M70L, S98A
VL: B1 VL with I2L, S40P, V55L, V92D, L96Y, A100G, L106I
notes: also called mAb104-409B11E12
Inhibition rate (%) [1]: 59.2%

B9: 556F6B8 mouse-human chimeric antibody (antibody, V domains shown)
VH: RVQLKQSGPGLVQPSQSLSITCTVSGFSLIKYGVHWVRQSPGEGLEWLGVIWRGGITDYNAAFMSRLSITKDNSKSQVFFKMNSLQADDTAIYYCAKWDGPLAMDYWGQGTSVTVSS
VL: DIVMTQSHKFLSTSVGDRVSITCKASQDVGTTVAWYQQKPGQSPKLLIYWASTRHTGVPDRFTGSGSGTDFTLTISNVQSEDLADYFCQQYSSYPYTFGGGTKLEIK
notes: also called mAb123-556F6B8; 556F8B8
Inhibition rate (%) [1]: 41.5%

B10: 556F6B8 (LAG-3 mouse-human chimeric antibody) (antibody, V domains shown)
VH: B9 VH
VL: B9 VL
notes: also called 556F8B8
OD450 [2]: 0.12 OD450
OD450 [3]: 2.43 OD450
OD450 [4]: 0.15 OD450
